Results published in the supplement of paper PMC9732359.
± gives the uncertainty stated by the source.

assay: protein stability index of a GFP-peptide fusion (yeast GPS) (PSI 1-4); higher = more stable; sorted into four equal gates, so the index is relative within each strain; details: doa10∆
Summary of the method: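 Each library plasmid carries Cherry plus GFP with a tiled 17-residue yeast protein peptide fused downstream, and the pooled library was carried in yeast. Mid-log cultures in leucine-free medium were sorted into four equal gates by GFP/Cherry ratio. Reads from Illumina sequencing of PCR-amplified plasmids from each gate were assigned to strains by barcodes. Per peptide, the protein stability index was computed as the summed products of gate read frequency and gate number.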

Row | Sequence | protein stability index
1 | YEHNGRTLEAITATLVG [CSL4] | 2.03 ± 0.051
2 | YEILLKILITYGSSPKL [SRB8] | 1.27 ± 0.055
3 | YFAKLREYLEEYKSLFV [RPP0] | 2.46 ± 0.19
4 | YFNQLKPYYFSNNHKLS [RPN12] | 1.17 ± 0.057
5 | YFPEGYNNKVGVAASQG [SIR2] | 1.64 ± 0.055
6 | YFQQTTIDWVEAGLQLC [PRP8] | 3.53 ± 0.11
7 | YGDRMKLAKNLQIGDVV [RPO31] | 2.94 ± 0.13
8 | YGGSRCANCVKERIIRA [RPL34A] | 1.56 ± 0.061
9 | YGLFLKYHKEQFIKSNF [SRB8] | 2.15 ± 0.067
10 | YGPSFTKRESLNARMFL [SIR2] | 1.85 ± 0.068
11 | YHNLTTHNSYEKACQVL [RPN6] | 3.33 ± 0.071
12 | YHSKRDASTPLRSTENG [RPB2] | 3.12 ± 0.1
13 | YIGEFEYIDDHRSGKIV [RPS22A] | 2.9 ± 0.057
14 | YIQERLKSLNDIETQLC [MED11] | 2.83 ± 0.083
15 | YISKAQNDQWSIQMEFM [SSN2] | 2.79 ± 0.064
16 | YITNADDSTKFQLVNDV [SIR3] | 3.01 ± 0.11
17 | YIWRYLPAPPVCIRPSV [RPO31] | 1.48 ± 0.14
18 | YKENEAMLRENIEVILS [SNF12] | 2.42 ± 0.053
19 | YKKLDIDGKVIQAGKFD [SNF2] | 2.94 ± 0.088
20 | YKLSTVVLRLYLKDNIT [GRR1] | 1.64 ± 0.06
21 | YKNEDVTALLEQGFKVV [YCS4] | 2.8 ± 0.1
22 | YKPGSITLENITRLCQT [MED1] | 2.14 ± 0.044
23 | YKVLKNNGLPECQVIAA [YCG1] | 1.42 ± 0.09

Row | Sequence | protein stability index
24 | YKVLKQTHPDTGISQKS [HTB1] | 2.42 ± 0.077
25 | YKYGYDMPCDVLAKRMA [SCL1] | 2.51 ± 0.067
26 | YLEELERKKQSDVLRFL [RPL15B] | 1.34 ± 0.16
27 | YLHIRDKILQLNDRFQT [PGD1] | 2.62 ± 0.056
28 | YLIDHIKVEGAVGNLGN [RPL22A] | 2.9 ± 0.17
29 | YLKAFDKNKLLLLAAQI [SSN2] | 1.32 ± 0.061
30 | YLKFIPLKRAIWLIKCC [SRB8] | 2.51 ± 0.095
31 | YLKHVSRRFKNGFQTGS [RPL37A] | 2.06 ± 0.085
32 | YLKNVLFAFNGVARNFH [SIN4] | 2.55 ± 0.082
33 | YLLISKENKKRKNFKMG [IRR1] | 2.91 ± 0.097
34 | YLLPDDFHFSTDRITRL [BRN1] | 2.43 ± 0.056
35 | YLNLLQEDELDEGTALS [RPB10] | 3.38 ± 0.11
36 | YLSDLKQFFQMTPLLVN [PCI8] | 1.69 ± 0.043
37 | YNRRQDKKNKRLKFGHR [SNF2] | 3.01 ± 0.092
38 | YNSFPHSNLEKISNSKL [SIR4] | 2.77 ± 0.066
39 | YNVKNIIQGRKNFDMLN [PCI8] | 2.51 ± 0.035
40 | YNYCVNKSRSSGHFSTD [CDC53] | 2.8 ± 0.056
41 | YPEYDQITKFPKYRDNL [SSN3] | 2.21 ± 0.18
42 | YPKLTLDFQTNKRLCDE [RPS17A] | 3.11 ± 0.073
43 | YPPMPFDGFLFGSRVMI [FAS1] | 2.64 ± 0.075
44 | YPVLRKLYKKIAKFERS [YIL149C/MLP2] | 2.42 ± 0.079
45 | YPVVEVERGRVGACTDE [RRP43] | 3.24 ± 0.1
46 | YQELIKNGALVSNILSA [YJL039C/NUP192] | 1.76 ± 0.072

Row | Sequence | protein stability index
47 | YQNMAFITAKDKYKLYP [YJR042W/NUP85] | 2.9 ± 0.063
48 | YQTCKNSEYLKRRVTNL [SMC2] | 2.37 ± 0.071
49 | YRAFGSIWQVKDQLPDL [MED7] | 3.08 ± 0.13
50 | YRMKGGRVTFIPLNRLS [SMC3] | 1.46 ± 0.14
51 | YSLLLASKGIDRLSLQD [ECM29] | 2.45 ± 0.2
52 | YSPKQDEQKHNENENSR [RPO21] | 2.69 ± 0.059
53 | YSSIPSLQDSIIKQENF [SSN2] | 2.7 ± 0.13
54 | YSSRVDSVTTETGKLLS [BRN1] | 2.38 ± 0.13
55 | YSSWSAQTIGRNSKTVR [PRE6] | 2.62 ± 0.14
56 | YSTANEYIIAAIRKAPH [RPN3] | 2.82 ± 0.061
57 | YTDFENTFQKTVEPVYQ [FAS1] | 2.15 ± 0.099
58 | YTMSNHGMSVDPRHIQL [RPO31] | 2.85 ± 0.066
59 | YTQYTNDYLEKHSVTEY [CDC53] | 2.55 ± 0.1
60 | YVERFETQLKVVTRSKE [SMC1] | 1.12 ± 0.066
61 | YVKSLHKQISAEDLTIA [SIN4] | 2.82 ± 0.14
62 | YVRTEETDGKHGKRRSQ [YMR129W/POM152] | 1.46 ± 0.041
63 | YWFPLAHFLSLSFTPTT [RPN2] | 1.65 ± 0.036
64 | YWYWWKNGNEYNEFLYS [QCR8] | 2.62 ± 0.066
65 | YYAHSIPSSKIDDFTTR [SNU114] | 2.96 ± 0.07
66 | YYKKFLIEPLPTESYLQ [BRR2] | 1.85 ± 0.055
67 | YYLGQYYGCLENDHERG [CSN12] | 2.68 ± 0.098

same assay, conditions: pdr5∆

Row | Sequence | protein stability index
68 | YEHNGRTLEAITATLVG [CSL4] | 2.05 ± 0.051
69 | YEILLKILITYGSSPKL [SRB8] | 1.6 ± 0.053
70 | YFAKLREYLEEYKSLFV [RPP0] | 2.65 ± 0.15
71 | YFNQLKPYYFSNNHKLS [RPN12] | 1.32 ± 0.077
72 | YFPEGYNNKVGVAASQG [SIR2] | 2.03 ± 0.063
73 | YFQQTTIDWVEAGLQLC [PRP8] | 3.19 ± 0.099
74 | YGDRMKLAKNLQIGDVV [RPO31] | 3.49 ± 0.21
75 | YGGSRCANCVKERIIRA [RPL34A] | 2.81 ± 0.074
76 | YGLFLKYHKEQFIKSNF [SRB8] | 2.29 ± 0.045
77 | YGPSFTKRESLNARMFL [SIR2] | 2.42 ± 0.049
78 | YHNLTTHNSYEKACQVL [RPN6] | 3.11 ± 0.058
79 | YHSKRDASTPLRSTENG [RPB2] | 3.32 ± 0.071
80 | YIGEFEYIDDHRSGKIV [RPS22A] | 3.13 ± 0.061
81 | YIQERLKSLNDIETQLC [MED11] | 2.68 ± 0.091
82 | YISKAQNDQWSIQMEFM [SSN2] | 2.73 ± 0.071
83 | YITNADDSTKFQLVNDV [SIR3] | 3.18 ± 0.1
84 | YIWRYLPAPPVCIRPSV [RPO31] | 1.27 ± 0.1
85 | YKENEAMLRENIEVILS [SNF12] | 2.73 ± 0.071
86 | YKKLDIDGKVIQAGKFD [SNF2] | 3.36 ± 0.08
87 | YKLSTVVLRLYLKDNIT [GRR1] | 1.53 ± 0.051
88 | YKNEDVTALLEQGFKVV [YCS4] | 3.08 ± 0.1
89 | YKPGSITLENITRLCQT [MED1] | 2.23 ± 0.041
90 | YKVLKNNGLPECQVIAA [YCG1] | 2.1 ± 0.14

Row | Sequence | protein stability index
91 | YKVLKQTHPDTGISQKS [HTB1] | 2.51 ± 0.074
92 | YKYGYDMPCDVLAKRMA [SCL1] | 2.25 ± 0.049
93 | YLEELERKKQSDVLRFL [RPL15B] | 2.23 ± 0.22
94 | YLHIRDKILQLNDRFQT [PGD1] | 2.02 ± 0.064
95 | YLIDHIKVEGAVGNLGN [RPL22A] | 3.11 ± 0.16
96 | YLKAFDKNKLLLLAAQI [SSN2] | 1.37 ± 0.052
97 | YLKFIPLKRAIWLIKCC [SRB8] | 1.86 ± 0.069
98 | YLKHVSRRFKNGFQTGS [RPL37A] | 3.23 ± 0.062
99 | YLKNVLFAFNGVARNFH [SIN4] | 2 ± 0.056
100 | YLLISKENKKRKNFKMG [IRR1] | 3.24 ± 0.14
101 | YLLPDDFHFSTDRITRL [BRN1] | 2.5 ± 0.056
102 | YLNLLQEDELDEGTALS [RPB10] | 3.3 ± 0.13
103 | YLSDLKQFFQMTPLLVN [PCI8] | 1.74 ± 0.044
104 | YNRRQDKKNKRLKFGHR [SNF2] | 3.14 ± 0.09
105 | YNSFPHSNLEKISNSKL [SIR4] | 2.65 ± 0.076
106 | YNVKNIIQGRKNFDMLN [PCI8] | 2.52 ± 0.037
107 | YNYCVNKSRSSGHFSTD [CDC53] | 2.54 ± 0.046
108 | YPEYDQITKFPKYRDNL [SSN3] | 2.4 ± 0.13
109 | YPKLTLDFQTNKRLCDE [RPS17A] | 3.06 ± 0.064
110 | YPPMPFDGFLFGSRVMI [FAS1] | 2.75 ± 0.071
111 | YPVLRKLYKKIAKFERS [YIL149C/MLP2] | 1.99 ± 0.06
112 | YPVVEVERGRVGACTDE [RRP43] | 2.8 ± 0.25
113 | YQELIKNGALVSNILSA [YJL039C/NUP192] | 2.2 ± 0.057

Row | Sequence | protein stability index
114 | YQNMAFITAKDKYKLYP [YJR042W/NUP85] | 3.06 ± 0.11
115 | YQTCKNSEYLKRRVTNL [SMC2] | 2.09 ± 0.079
116 | YRAFGSIWQVKDQLPDL [MED7] | 3.17 ± 0.086
117 | YRMKGGRVTFIPLNRLS [SMC3] | 1.15 ± 0.099
118 | YSILGDRFKYRSVDRAG [POP4] | 2.93 ± 0.23
119 | YSLLLASKGIDRLSLQD [ECM29] | 3.23 ± 0.16
120 | YSPKQDEQKHNENENSR [RPO21] | 2.54 ± 0.064
121 | YSSIPSLQDSIIKQENF [SSN2] | 2.99 ± 0.17
122 | YSSRVDSVTTETGKLLS [BRN1] | 2.46 ± 0.14
123 | YSSWSAQTIGRNSKTVR [PRE6] | 2.9 ± 0.14
124 | YSTANEYIIAAIRKAPH [RPN3] | 2.64 ± 0.052
125 | YTDFENTFQKTVEPVYQ [FAS1] | 2.44 ± 0.1
126 | YTMSNHGMSVDPRHIQL [RPO31] | 2.91 ± 0.083
127 | YTQYTNDYLEKHSVTEY [CDC53] | 2.45 ± 0.075
128 | YVERFETQLKVVTRSKE [SMC1] | 2.29 ± 0.091
129 | YVKSLHKQISAEDLTIA [SIN4] | 3.19 ± 0.11
130 | YVRTEETDGKHGKRRSQ [YMR129W/POM152] | 1.85 ± 0.063
131 | YWFPLAHFLSLSFTPTT [RPN2] | 1.34 ± 0.033
132 | YWYWWKNGNEYNEFLYS [QCR8] | 2.21 ± 0.049
133 | YYAHSIPSSKIDDFTTR [SNU114] | 3.15 ± 0.078
134 | YYKKFLIEPLPTESYLQ [BRR2] | 2.58 ± 0.066
